Source: publication PMC6098134

Molecular target: recombinant basigin (CD147), immunoglobulin domains 1 and 2 of the short isoform (aa 22-205) (UniProt P35613)
Experiment: SPR; basigin immobilised on a CM5 chip by amine coupling (950 RU); RH5.1 injected as a two-fold dilution series from 2 µM, 120 s at 30 µL/min, 300 s dissociation; 20 °C; 10 mM HEPES pH 7.4, 150 mM NaCl, 3 mM EDTA, 0.005% Tween-20, 2 mg/mL dextran, 1 mg/mL salmon sperm DNA; kinetic sensorgrams fitted to a global 1:1 model

UniProt P35613, sequence (P35613 other isoform, or with tags, fused parts or gaps): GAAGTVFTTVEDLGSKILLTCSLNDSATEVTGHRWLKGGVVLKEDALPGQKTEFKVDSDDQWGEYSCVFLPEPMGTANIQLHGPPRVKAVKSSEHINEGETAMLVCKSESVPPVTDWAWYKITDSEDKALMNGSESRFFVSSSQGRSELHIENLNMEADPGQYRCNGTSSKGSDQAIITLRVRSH

RH5.1 protein vaccine (full-length Plasmodium falciparum reticulocyte-binding protein homolog 5, PfRH5, aa E26-Q526, with C-tag) (from UniProt Q8IFM5 26-526) (natural protein)
Kd: 1200 nM
